According to the DeepSol protein solubility set:

Experiment: soluble on expression in E. coli; label from the status in PepcDB or PDB records

Soluble on expression in E. coli, not soluble:
MGSDKIHHHHHHMMQLQVNATEIKTVYEQQLFNGKNFHVFIYNKTESVTGLHQHDYYEFTLVLTGRYYQEINGKRVLLERGDFVFIPVGSNHQSFYEFGATRILNVGISKRFFEQHYLPLLPFCFVASQVYRANSTFLTYIETVIASLNFRGNGLDEFIEVVTFYIINRLRHYREEQVYDDIPQWLKATVEIMHDKTQFGEHALENMVRLSAKSQEYLTRATRRYYSKTPMQIINEIRINFAKKQLEMTNYSVTDIAYEAGYSSPSLFIKTFKKMTSFTPNSYRKRLTEINE
MGSDKIHHHHHHMMRRRLPSLIALRAFEAVGRTGSVRAAGDELAVSHTVVSRHLQNLQKFLGVALVRGEGRGVILTEAGVSFHAQISQAFDIIARATTAARPSSLPTLNIWCIPGIANRLLLSRLPELTGPPRNWEVNLQPTLTHPDLSRAEADAEIVYADVIDSRGPLMSEILVRPRVFPVASPAYLARYPAITSLEDLSQIALIHEESTMQWTRWFELAGLDDLPPLRGQRLWHAHLAIEAARLGQGVALANDVLVEEDLRSGALVEVITSSVYMETYQLVALKERWDDPAIVALRNWLKQVLAELE
MGSDKIHHHHHHMMTKTKADKYPQRVRNELRFRELTVLRVERAGAAFQRIVLGGEALEGFASHGFDDHTKLFFPEPGAAFTPPQVTEEGIDWGEGVRPATRDYTPLYDAERHELAYDFYIHDGGIASRWALEAKVGDKLVIGGPRGSLVVPEDYAWQLYVCDESGMPALRRRLLGLRQLPARPQVTAIVTIADASYKDYLADLDGFNIEWVVGHNPAFVAERLAQVKVPAEDYFIWLTGEGAVVKSLLARFEDESIDQQLVRSQAYWHSK
MGSDKIHHHHHHMNAPDTSLAGASTASTASYDSAADGYNFAYLDEQTKRMLRRALLKAVAVPGYQVPFASREMPLPFGWGTGGIQVTAAIIGRKDTLKVIDQGSDETTNAVNIRRFFARTTGVATTRRTVDATIIQTRHRIPETPLTERQILVYQVPMPEPLFRLEPRVAECRKLHALADYGLISVKLYEDIVHHGSIATTYDYPVIVNHRYLASPSPIPKFDNPKMHMNPALQLFGAGRERRIHAIPPYTPVRSLDFDDHPFEVQKWHHACALCGSTESFLDEMIVDDAGKRMFVCSDSDYCHERRGDADFDPPSRDAGKGEPA
MGSDKIHHHHHHMNEEEDAFSYLSKLGLTPYEIKVYKTLLIYGPNSATETAKLSKVPQPRVYDIFESLESKGAVEVSPGKRKIYRAVPIDNFIDRKLIEIRDYKKRIESYIEQQKKFKESNPYLWMIKNNFQIREKMKDVINEAENELIASLNYENIRYLKKYFIDAAKRGITVVIVAFPDAELDFLRTFPEDIVIRIRRGSASQVMIADRKHGLINVESTEDSEGYALYFDENELIHILNYYFYHTIWGPSDMFHDFPVRQNIKFSTAWLSCEAIDSFFKRSYSVSGIVTGYSATGQVKIEGTITGIDLIPGFKHTFFIKDNERVYSVGGKTARMEDIKLETLTMNVWIPNKQAISQKQ
MGSDKIHHHHHHMNEIAEVLPESMKNALSEIPEQQWLEIEEVRIRINRPVELIRRGQPVYLSYAGTAEDAHLILSRLSNYSMYTLEEELKKGYVTIRGGHRVGLAGRVITENGGVKGLRDIASFNIRIARQKLGIAEPLLPYLYQNSWLNTLIIGPPQTGKTTLLRDLARLSSTGKKNMLPVKTGIVDERSEIAGCLRGIPQHQFGQRIDVLDACPKAEGLMMMIRSMSPEVMIVDEIGRMEDTDALLEALHAGVSVIVSAHGWSISDLMKRPSLKRLWEERAFDRYLELSRAKGPGTVSQIYDKDGNVLSRTTGVKTC
MGSDKIHHHHHHMNEKTTTAQKGAPRARVSATRVRSASRTPHATTVNPADLTVHNHPLARRHYRVATAAIEGFVDLVEHCVRVLIPGALIYARPRMGKTHAIDYLALHLGRNRGDILVLRMSCEYHRTDYEGAFFSALLSAAGIRDPQPRFIADKRFALMRRINEQLQMRSGHIVVLFCDEAQRLSKHALEWLRDVHDQLAHHGVRLITFLVGQPQLMEQKAQYQLSGDEQIVARFMIEQLHFRGITGAVEAATCLASYDMTRYPEDTGSTFTAFFYPDAYAAGLRLEQSAAALWNGFVNAHKVAQLAGPIELHMDYFSRAVESVLLNGPQWDSAGLVLDSAYWERAVRESGYVAAQQTVQPEV
MGSDKIHHHHHHMNERRLLLTGGWILSMDPAVGDLRQGDILIEGDRIAAVAPRIEAPEAQRIDAAGMIVLPGFVDTHRHTWQSCVRHRYADIDPQIYFAEMLGATGAAFRPDDVYIGTLLGAVSALDSGITTMLDWSHVQNSPEHADAAVLGLRDAGIRGIFAHGWPLVEGASWMFDSQRGHPEDIRRLRERYFSSDDQLLTLAMAARGPEMACREVWLRDLRLARELGIRSSIHMGAYARNGTARGIAQMHEAGVLGDDLTFVHCCCSGEDEIAMMADAGVSASLGVHCELNAQGIGDLPLDRMLAVGIRPSLSGDTETKCSGDMFTQMRHAFAYYRSWMGGNHSRVANAPATLSMRDVLEFATVAGARANGLDHKVGSLTPGKQADIVMIRGDDLNLAPVSDAVGAVVLAAHPGNVDTVFVAGRTVKRHGRMTGVDVDMLRHRAAASQHYVLGLR
MGSDKIHHHHHHMNFILELLRREQGRQQKELEFSQLPYQQRVAQLKEQKLPLFFYKYHSLHSHNPNKPQEKWEHASDYLINSRFYLSRPANFNDPFDMRAYFTDSVPKEKKRYFLDQLLKIRTPQLTEKDRVLEVKKLLDNPEKLRTIHKLTLDEAVDSFGVSCLSTAPCNILMWSHYANHHRGIAFQFNFAIDIFSFKWLQPVSYSNDFPGIEYFERRDNKYSIALLTKHHGWEYEKEWRIVKPNGAGTYQDFNSKILTGVILGCRIDRKDEDKIRTMIEQRKEQGLSSVKLYKLRQHESRYKLVIKHVE
MGSDKIHHHHHHMNFKQLNYFLVVAEEGQITSAAKRLFVGQPALSYQLKQLEEELGAKLFIRQPYGIELTEAGKKLRDYAGQILTLAQNVQTEITELDRGGWGRVKLGSVSSSIGELPSAKLTAFARQHPGVSFDIYEDNTFGILDKLQGNLLDLAIVRTPYNRVNLNFVDISDEPMTAVTCQDFFPGKGKVGLQDLAGQPLVIYRRFEDMFKEAFAEKGLTPNFVVKCDDSRTAIRWSDSGLGIALVPESIAKTYARGHIYPIDLAKWRTRLQLVWRKDRVVTPLMRQIIALYAK
MGSDKIHHHHHHMNFYRDATWVLEDIEKEAAKERISGSMQTLVLKSCKRYKLKSNPKHIYAVLDSCWKYKPYLEKVMKKAHILEDIPKKKGKPLFSRLTLLLLCHDLLLSKQKRIQMGKHPIKDYVLKFKSPLHSEMVKLKLKLKVRELSELVLSEDISNDLPPVRWIRINPLKCHPNGETEPVLAELRKKFTLKVDKWSELVPGSIYYDEFIPNLFGIHPSDKITAHELYKHGKIIIQDRASCFPAHILNPGPSDIVIDSCSAPGNKTTHTASYIYPEPPKDNNTRIYAFEKDPERAKVLQKMIKIAGCSPNISVNVGDFTKLATPEKYKDVTCFIVDPSCSGSGIFGRKFFDSFNRRKIDDKDDDGGIVPDEQEEFIAKEELQTRLAKLSSFQFQMVKHAMSFPAAKKIVYSTCSIHAEENERVVIDLLLDKSVREWGWKVAPKREVIPSWPRRGKVEEFEEVFRDGVTYDPQQLAEGCIRALPKSDGGIGFFAVCFERD
MGSDKIHHHHHHMNGFSQLEGLRGHPSVVRVIGHRGARGVMPENTLEGFAFTLAAGVRALEFDVVMTADGVPVVTHNHHLANAMTRDGQGHWLTGAERQVAEMTYAEIRALDVGGLDGRTVYGRRFPDQAFLTGIHVPRLGELLDLCAGYGDQAPYLLLELKSDPALMHDHAARAEMVAAVLADVRRYRMEPRTVMHSFDWALLGECRRQAPDLPTSYLSQLPENADDPGEDSAKPVGPDYDRMTESLPQAVASAGGQLWCPYFLDVTPELVAEAHDLGLIVLTWTVNEPEDIRRMATTGVDGIVTDYPGRTQRILIDMGLSWT
MGSDKIHHHHHHMNGLFVLAYAITNLHPGAGRGYGIVDMPVQRDQMGYPIIYSSAFKGPLKALCAGDAINDHGRIDCKKKGECCCLFGSEPEEEESSKGMLNVMDLPLFSVPAPTFDGFVQVTTNYLIDRARNIFEAISHINGYLGSLGNEIKALLDAQGNKSVEVYDTEAKVVNFDPSSFKLLSSLPLFNNRLAISDDKRVIDKSLIIYTRNRLNLLTKVVEEGGLWSEEYIPMGSIFIGGMIIDNVRNKFCDELSKISCDSRLFLHHFSRIFNADKISEDVYLFYLNIGGKESIGKGLMKVFIGV
MGSDKIHHHHHHMNHLLKQAKRVASECECGHEHQWIEMDELQLGRNAINYLPEYLHEKGLLHVTIVADANTYAVAGQLVAQLLKGRGIDVENCILKEQGALTLLADEHGLGQLVIGAAKETDVFLAVGAGTIHDLTRIASYKFGKPFIAIPTAPSVDGFTSMGAPVIRDGVKITFQTQAPIALFADLDFLTQAPRSMVAAGFGDMLGKSTSLVDWQVSHMLNDEPFCPAVFHMTKSALTMCMEHADEIAACNEQGIRLLTEALIMSGLAMLIFGHSHPASGAEHHLSHYWEMAFLRSGGTQPLHGAKVGYATMLISALYKNEARKKIETFQGEGSPLVNSIHKHRERLLMLIDTIPESSDIQRLLESVGGAVKSADLALADSLEDEALEKAHKLRERCTLLYCLNEHLKTS
MGSDKIHHHHHHMNIIKSFNSTIDYLETVLDDEIDEKKVTRISGYSYSMFSRLFSILTEMTLSEYLRSRRLTEAAIILRDTDEKIIDVAFKFGYESSDSFGTAFKNFHGFTPSEVRIGKPFKLVSRVQLALSVRGGRSMNIRIQKKKAFTVAGVNQQNINSSICASLWQKLFSKVSHEEMLNLGTGEVVGVCHDILSLDNHDVLDSNTINYMAGYIVTDVDKARSMGLDILEIGETEYAVVELTGSVPECIHNGWKYAMEVFFPEHGYVHSGKPDFEYYYEGDMYSKDYKMELWIPVCKS
MGSDKIHHHHHHMNITASFRDASLVAFDFPEILTRISKIIDALKAHDDSLRYENWMLKGDNQEDATRYHVYDAAGIATPAALAVLREEFRNSKDFTYVAMWDGNLASDNGASISCHVGDKSLPDTLTLRIEGERWKAYAAISGIVSTMVTIFSPALVEVSFDEYAVKQVFDDKPGVGWMLYLPKVITQQQVPEARALIPVPAKGKQTGTIIISVTDAPFSVDNPEHVAIANRIEIRLVDQDLLPAYVDI
MGSDKIHHHHHHMNIVSQLSPVTLSPELIARFTAIVGDKHALTDPLELEAYITEERNLYRGHSPLVLRPGSTEEVVAICKLANEARVALVPQGGNTGLVGGQTPHNGEVVISLKRMDKIREIDTSSNTITVEAGAILQRVQEKAAEVDRLFPLSLGAQGSCTIGGNLSTNAGGTAALAYGLARDMALGVEVVLADGRVMNLLSKLKKDNTGYDLRDLFIGAEGTLGIITAATLKLFPKPRAVETAFVGLQSPDDALKLLGIAQGEAAGNLTSFELIAETPLDFSVRHANNRDPLEARYPWYVLIELSSPRDDARAALESILERGFEDGIVVDAAIANSVQQQQAFWKLREEISPAQKPEGGSIKHDISVPVAAVPQFIEQANAAVVALIPGARPVPFGHLGDGNIHYNVSQPVGADKAEFLARWHDVSQVVFEVVLRLGGSISAEHGIGVMKRDELAEVKDKTAIELMRSIKALLDPHGIMNPGKVV
MGSDKIHHHHHHMNKAERQNLIITAIQQNKKMTALELAKYCNVSKRTILRDIDDLENQGVKIYAHYGKNGGYQIQQAQSKIALNLSETQLSALFLVLNESQSYSTLPYKSEINAIIKQCLSLPQTRLRKLLKRMDFYIKFDDTQHMTLPMLFSDILIYCTERNVMLVDHRVDDNIKAENVIFIGLLCKHGHWHAVIYDIAQDKTAELEIENIIDISYSFGKTIQTRDISIDNYHQFLNPIDS
